Data taken from paper PMC9130146, “Alteration in DNA-binding affinity of Wilms tumor 1 protein due to WT1 genetic variants associated with steroid - resistant nephrotic syndrome in children”.

Columns and labels:
Assay in all cases: MST; 50 mM Na2HPO4.12H2O, 150 mM NaCl, 0.005% Tween; pH not stated; room temperature; 80 nM DNA; protein from 1-4 mM (highest) downward
WT1 ZF2-4 p.Gln447Pro = WT1 ZF2-4 p.Gln447Pro (Homo sapiens (cDNA from A549 cells), UniProt P19544-2 334-423, Q357P); details: protein: recombinant; tags: no tag stated; label: 5' Cyanine5; single strand
WT1 ZF2-4 p.Gln447Pro, sequence (P19544 other isoform, or with tags, fused parts or gaps Q357P | p.Q447P p.Q447P): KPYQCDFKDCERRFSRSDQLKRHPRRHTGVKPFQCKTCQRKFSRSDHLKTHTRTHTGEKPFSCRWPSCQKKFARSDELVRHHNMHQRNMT

WT1 ZF2-4 p.His450Arg = WT1 ZF2-4 p.His450Arg (Homo sapiens (cDNA from A549 cells), UniProt P19544-2 334-423, H360R); details: protein: recombinant; tags: no tag stated; label: 5' Cyanine5; single strand
WT1 ZF2-4 p.His450Arg, sequence (P19544 other isoform, or with tags, fused parts or gaps H360R | p.H450R p.H450R): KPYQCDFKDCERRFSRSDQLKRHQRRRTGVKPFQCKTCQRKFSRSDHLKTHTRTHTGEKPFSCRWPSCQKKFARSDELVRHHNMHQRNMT

WT1 ZF2-4 p.Cys433Tyr = WT1 ZF2-4 p.Cys433Tyr (Homo sapiens (cDNA from A549 cells), UniProt P19544-2 334-423, C343Y); details: protein: recombinant; tags: no tag stated; label: 5' Cyanine5; single strand
WT1 ZF2-4 p.Cys433Tyr, sequence (P19544 other isoform, or with tags, fused parts or gaps C343Y | p.C433Y p.C433Y): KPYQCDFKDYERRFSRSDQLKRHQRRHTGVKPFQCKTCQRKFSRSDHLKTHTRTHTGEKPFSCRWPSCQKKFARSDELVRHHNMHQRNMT

[1] = molecular target: WT1 ZF2-4 wild type (-KTS) (Homo sapiens (cDNA from A549 cells), UniProt P19544-2 334-423); details: protein: recombinant; tags: no tag stated; pET22b, reverse primer has a stop codon; label: 5' Cyanine5; single strand
WT1 ZF2-4 wild type (-KTS), sequence (P19544 other isoform, or with tags, fused parts or gaps): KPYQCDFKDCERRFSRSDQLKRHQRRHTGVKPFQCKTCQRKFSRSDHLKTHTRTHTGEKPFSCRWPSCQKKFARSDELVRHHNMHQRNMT

WT1 ZF2-4 p.Arg463Ter = WT1 ZF2-4 p.Arg463Ter (Homo sapiens (cDNA from A549 cells), UniProt P19544-2 334-372); details: protein: recombinant; tags: no tag stated; label: 5' Cyanine5; single strand
WT1 ZF2-4 p.Arg463Ter, sequence (P19544 351-389): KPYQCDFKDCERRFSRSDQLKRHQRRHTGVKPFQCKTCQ

WT1 ZF2-4 p.His474Arg = WT1 ZF2-4 p.His474Arg (Homo sapiens (cDNA from A549 cells), UniProt P19544-2 334-423, H384R); details: protein: recombinant; tags: no tag stated; label: 5' Cyanine5; single strand
WT1 ZF2-4 p.His474Arg, sequence (P19544 other isoform, or with tags, fused parts or gaps H384R | p.H474R p.H474R): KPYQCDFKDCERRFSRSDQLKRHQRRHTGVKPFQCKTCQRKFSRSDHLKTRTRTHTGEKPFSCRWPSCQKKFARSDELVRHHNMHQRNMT

WT1 ZF2-4 p.Asp469Asn = WT1 ZF2-4 p.Asp469Asn (Homo sapiens (cDNA from A549 cells), UniProt P19544-2 334-423, D379N); details: protein: recombinant; tags: no tag stated; label: 5' Cyanine5; single strand
WT1 ZF2-4 p.Asp469Asn, sequence (P19544 other isoform, or with tags, fused parts or gaps D379N | p.D469N p.D469N): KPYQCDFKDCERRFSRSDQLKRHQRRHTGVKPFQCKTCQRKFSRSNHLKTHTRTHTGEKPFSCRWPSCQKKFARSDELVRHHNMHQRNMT

WT1 ZF2-4 p.Arg467Trp = WT1 ZF2-4 p.Arg467Trp (Homo sapiens (cDNA from A549 cells), UniProt P19544-2 334-423, R377W); details: protein: recombinant; tags: no tag stated; label: 5' Cyanine5; single strand
WT1 ZF2-4 p.Arg467Trp, sequence (P19544 other isoform, or with tags, fused parts or gaps R377W | p.R467W p.R467W): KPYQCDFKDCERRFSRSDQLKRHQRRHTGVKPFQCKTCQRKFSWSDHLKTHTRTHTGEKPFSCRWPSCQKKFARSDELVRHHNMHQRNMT

WT1 ZF2-4 p.Arg439Pro = WT1 ZF2-4 p.Arg439Pro (Homo sapiens (cDNA from A549 cells), UniProt P19544-2 334-423, R349P); details: protein: recombinant; tags: no tag stated; label: 5' Cyanine5; single strand
WT1 ZF2-4 p.Arg439Pro, sequence (P19544 other isoform, or with tags, fused parts or gaps R349P | p.R439P p.R439P): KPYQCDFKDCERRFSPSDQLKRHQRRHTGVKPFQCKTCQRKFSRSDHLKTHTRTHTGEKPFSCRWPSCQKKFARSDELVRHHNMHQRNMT

## GTGGAGGCGGCGGGGGCGGCAGCAACAG (ssDNA) [EGR1 DNA motif, Cy5 oligo]
WT1 ZF2-4 p.Gln447Pro
  Kd: 24.9 ± 4.2 µM
WT1 ZF2-4 p.His450Arg
  Kd: 878 ± 164 µM
WT1 ZF2-4 p.Cys433Tyr
  Kd: 89.4 ± 7 µM
[1]
  Kd: 111 ± 7.4 µM
WT1 ZF2-4 p.Arg463Ter
  Kd: 324 ± 13.3 µM
WT1 ZF2-4 p.His474Arg
  Kd: 48.4 ± 6 µM
WT1 ZF2-4 p.Asp469Asn
  Kd: 12.1 ± 1.7 µM
WT1 ZF2-4 p.Arg467Trp
  Kd: 94.6 ± 9.8 µM
WT1 ZF2-4 p.Arg439Pro
  Kd: 319 ± 72.7 µM
